Reference: article PMC5537682, “DNA-Interacting Characteristics of the Archaeal Rudiviral Protein SIRV2_Gp1”

What was measured:
SIRV2_Gp1 [1] = target: T1, SIRV2_Gp1 (Sulfolobus islandicus rod-shaped virus …, UniProt Q8UYE8 1-83); experiment: EMSA; >1 uM protein needed; higher affinity than single-stranded probes; 6-FAM EMSA: 50 mM Tris pH 7.5, 5 mM EDTA, 1 mM DTT, 100 ug/mL BSA, 100 nM probe, 20 min room temperature; 32P EMSA: 20 mM Tris pH 8.0, 0.4 mM EDTA, 1 mM MgCl2; settings: protein: recombinant; tags: C-terminal His-tag (pEXP5-CT/TOPO); blunt
T1 sequence: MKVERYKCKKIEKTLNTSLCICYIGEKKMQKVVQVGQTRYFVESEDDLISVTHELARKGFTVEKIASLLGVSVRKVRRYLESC

SIRV2_Gp1 [2] = target: T1, SIRV2_Gp1; experiment: EMSA; low affinity, >1 uM protein needed; smearing, unbound probe remains; 6-FAM EMSA: 50 mM Tris pH 7.5, 5 mM EDTA, 1 mM DTT, 100 ug/mL BSA, 100 nM probe, 20 min room temperature; 32P EMSA: 20 mM Tris pH 8.0, 0.4 mM EDTA, 1 mM MgCl2; settings: protein: recombinant; tags: C-terminal His-tag (pEXP5-CT/TOPO); label: 5'-6-FAM; single strand
SIRV2_Gp1 [3] = target: T1, SIRV2_Gp1; experiment: EMSA; >1 uM protein needed; 6-FAM EMSA: 50 mM Tris pH 7.5, 5 mM EDTA, 1 mM DTT, 100 ug/mL BSA, 100 nM probe, 20 min room temperature; 32P EMSA: 20 mM Tris pH 8.0, 0.4 mM EDTA, 1 mM MgCl2; settings: protein: recombinant, tags: C-terminal His-tag (pEXP5-CT/TOPO)

B1: random 30-bp dsDNA (oligos 3-4) (dsDNA)
DNA 1: TGAGTTTTTTTCATTTTTTGCGTAAATTTC
DNA 2: GAAATTTACGCAAAAAATGAAAAAAACTCA
binding result (SIRV2_Gp1 [1]): binds

TGAGTTTTTTTCATTTTTTGCGTAAATTTC (ssDNA) [random 30-nt ssDNA (oligo 3)]
binding result (SIRV2_Gp1 [2]): binds

B2: hairpin DNA (oligo 5) (structured_DNA)
DNA: TGAGTTTTTTTCATTTTTTGCGTAAATTTCGAAATTTACGCAAAAAATGAAAAAAACTCA
binding result (SIRV2_Gp1 [3]; label: 5'-6-FAM, hairpin): binds

B3: Holliday junction DNA (oligos 7-10) (structured_DNA)
DNA 1: GCGTTACAATGGAAACTATTCTTGGCAGTTGCATCCAACG
DNA 2: CGTTGGATGCAACTGCCAAGAATAGTGTCAGTTCCAGACG
DNA 3: CGTCTGGAACTGACACTATTCTTGGCGAATGGTCGTAAGC
DNA 4: GCTTACGACCATTCGCCAAGAATAGTTTCCATTGTAACGC
binding result (SIRV2_Gp1 [3]; four-way junction of 4 strands): binds
